The record followed here is EP4328239A1 (dated 2024).

Test [1] concerns the target T1, MAGEA1 peptide on HLA-B*44:03 (human).
T1 peptide: EEGPSTSCI
Nature of the test: killing.

For test [2], the target named is T2, MAGEA1 peptide on HLA-B*44:03 (human).
T2 peptide: LAETSYVKVL
Nature of the test: luciferase kill assay, 18 h; TCR-transduced CD8+ T cells against K562-HLA-B4403-MAGE-A1, cells that express the antigen (full-length MAGEA1); two donors; full-length, on cells.

The target of test [3] is T3, MAGEA1 peptide on HLA-B*44:03 (human).
T3 peptide: AETSYVKVL
Nature of the test: cytokine release.

Test [4] addresses T4, MAGEA1 peptide on HLA-B*44:03 (human).
T4 peptide: AETSYVKVLE
In words: cytokine release.

The target in test [5] is T5, MAGEA1 peptide on HLA-B*44:03 (human).
T5 peptide: ALAETSYVKV
Nature of the test: cytokine release.

Test [6] concerns the target T6, MAGEA1 peptide on HLA-B*07:02 (human).
T6 peptide: RVRFFFPSLR
In words: cytokine release.

Test [7] addresses T7, MAGEA1 peptide on HLA-B*07:02 (human).
T7 peptide: ARVRFFFPSL
Nature of the test: cytokine release.

In test [8] the target is T8, MAGEA1 peptide on HLA-A*03:01 (human).
T8 peptide: ESLFRAVITK
In words: cytokine release.

Test [9] concerns the target T9, MAGEA1 peptide on HLA-A*03:01 (human).
T9 peptide: LFRAVITKK
Nature of the test: cytokine release.

In test [10] the target is T10, MAGEA1 peptide on HLA-A*03:01 (human).
T10 peptide: SLFRAVITKK
In words: cytokine release.

The target of test [11] is T11, MAGEA1 peptide on HLA-A*29:02 (human).
T11 peptide: DLVGFLLLKY
In words: cytokine release.

The target in test [12] is T12, MAGEA1 peptide on HLA-A*29:02 (human).
T12 peptide: LVGFLLLKY
Nature of the test: cytokine release.

For test [13], the target named is T13, MAGEA1 peptide on HLA-A*26:01 (human).
T13 peptide: EVYDGREHSA
Nature of the test: cytokine release.

For test [14], the target named is T14, MAGEA1 peptide on HLA-B*57:03 (human).
T14 peptide: KVADLVGFL
In words: cytokine release.

Test [15] deals with T15, MAGEA1 peptide on HLA-B*57:03 (human).
T15 peptide: VADLVGFLL
In words: cytokine release.

Test [16] concerns the target T16, MAGEA1 peptide on HLA-B*07:02 (human).
T16 peptide: RVRFFFPSL
In words: luciferase kill assay, 18 h; TCR-transduced CD8+ T cells against K562-HLA-B0702-MAGE-A1, cells that express the antigen (full-length MAGEA1); full-length, on cells.

Test [17] addresses T17, MAGEA1 peptide on HLA-B*44:03 (human).
T17 peptide: KVADLVGFLL
In words: killing.

Test [18] addresses T18, MAGEA1 peptide on HLA-B*44:03 (human).
T18 peptide: VADLVGFLL
In words: cytokine release.

Test [19] concerns the target T19, MAGEA1 peptide on HLA-B*44:03 (human).
T19 peptide: ADLVGFLLLK
Nature of the test: cytokine release.

Test [20] deals with T20, MAGEA1 peptide on HLA-A*02:01 (human).
T20 peptide: KVLEYVIKV
In words: luciferase kill assay, 18 h; TCR-transduced CD8+ T cells against K562-HLA-A0201-MAGE-A1, cells that express the antigen (full-length MAGEA1); full-length, on cells.

Test [21] addresses T21, MAGEA1 peptide on HLA-A*02:01 (human).
T21 peptide: VKVLEYVIKV
Nature of the test: cytokine release.

The target in test [22] is T22, MAGEA1 peptide on HLA-A*02:01 (human).
T22 peptide: KVLEYVIKVS
In words: cytokine release.

B1: TCR8 (TCR, V domains shown)
Valpha: GQNIDQPTEMTATEGAIVQINCTYQTSGFNGLFWYQQHAGEAPTFLSYNVLDGLEEKGRFSSFLSRSKGYSYLLLKELQMKDSASYLCAPSSNTGKLIFGQGTTLQVKP
Vbeta: DAGVIQSPRHEVTEMGQEVTLRCKPISGHNSLFWYRQTMMRGLELLIYFNNNVPIDDSGMPEDRFSAKMPNASFSTLKIQPSEPRDSAVYFCASSLPQETQYFGPGTRLLVL
On to B1, for which, in test [1], the binding result is recorded as “recognises”.

B2: TCR5 (TCR, V domains shown)
Valpha: GQQLNQSPQSMFIQEGEDVSMNCTSSSIFNTWLWYKQEPGEGPVLLIALYKAGELTSNGRLTAQFGITRKDSFLNISASIPSDVGIYFCAGLRDNYGQNFVFGPGTRLSVLP
Vbeta: DGGITQSPKYLFRKEGQNVTLSCEQNLNHDAMYWYRQDPGQGLRLIYYSQIVNDFQKGDIAEGYSVSREKKESFPLTVTSAQKNPTAFYLCASRVGGFEGYTFGSGTRLTVV
With B2, the “EC50 killing capacity (E:T ratio at which 50% of target cells were killed)” value in test [2] is 0.4 E:T ratio. Besides, the binding result in test [3], in test [4] and in test [5] was “recognises” in each case.

B3: TCR23 (TCR, V domains shown)
Valpha: AQKVTQAQTEISVVEKEDVTLDCVYETRDTTYYLFWYKQPPSGELVFLIRRNSFDEQNEISGRYSWNFQKSTSSFNFTITASQVVDSAVYFCALSVTYTGNQFYFGTGTSLTVIP
Vbeta: DSGVTQTPKHLITATGQRVTLRCSPRSGDLSVYWYQQSLDQGLQFLIQYYNGEERAKGNILERFSAQQFPDLHSELNLSSLELGDSALYFCASSVQGQGTDTQYFGPGTRLTVL
For the molecule B3, the binding result in [6] and in test [7] was “recognises” each time.

B4: TCR24 (TCR, V domains shown)
Valpha: KNQVEQSPQSLIILEGKNCTLQCNYTVSPFSNLRWYKQDTGRGPVSLTIMTFSENTKSNGRYTATLDADTKQSSLHITASQLSDSASYICVVSNNAGNMLTFGGGTRLMVKP
Vbeta: DAMVIQNPRYQVTQFGKPVTLSCSQTLNHNVMYWYQQKSSQAPKLLFHYYDKDFNNEADTPDNFQSRRPNTSFCFLDIRSPGLGDTAMYLCATSRESLGRDEQFFGPGTRLTVL
As to B4, the binding result in [8], in test [9] and in test [10] was “recognises” throughout.

B5: TCR4 (TCR, V domains shown)
Valpha: AQSVTQLGSHVSVSEGALVLLRCNYSSSVPPYLFWYVQYPNQGLQLLLKYTSAATLVKGINGFEAEFKKSETSFHLTKPSAHMSDAAEYFCAVSNSGNTPLVFGKGTRLSVIA
Vbeta: AAGVIQSPRHLIKEKRETATLKCYPIPRHDTVYWYQQGPGQDPQFLISFYEKMQSDKGSIPDRFSAQQFSDYHSELNMSSLELGDSALYFCASSSTTGDGYTFGSGTRLTVV
For B5, the binding result in test [11] and in test [12] was “recognises” in each case.

B6: TCR2 (TCR, V domains shown)
Valpha: AQKITQTQPGMFVQEKEAVTLDCTYDTSDPSYGLFWYKQPSSGEMIFLIYQGSYDQQNATEGRYSLNFQKARKSANLVISASQLGDSAMYFCASREGSARQLTFGSGTQLTVLP
Vbeta: DVKVTQSSRYLVKRTGEKVFLECVQDMDHENMFWYRQDPGLGLRLIYFSYDVKMKEKGDIPEGYSVSREKKERFSLILESASTNQTSMYLCASDSADTQYFGPGTRLTVL
On to B6, for which the binding result in [13] is “recognises”.

B7: TCR1 (TCR, V domains shown)
Valpha: GNSVTQMEGPVTLSEEAFLTINCTYTATGYPSLFWYVQYPGEGLQLLLKATKADDKGSNKGFEATYRKETTSFHLEKGSVQVSDSAVYFCALSGGGSYIPTFGRGTSLIVHP
Vbeta: EAGVAQSPRYKIIEKRQSVAFWCNPISGHATLYWYQQILGQGPKLLIQFQNNGVVDDSQLPKDRFSAERLKGVDSTLKIQPAKLEDSAVYLCASSSPGQLNTEAFFGQGTRLTVV
With B7, the binding result in test [14] and in test [15] was “recognises” throughout.

B8: TCR18.2 (TCR, V domains shown)
Valpha: GQQVMQIPQYQHVQEGEDFTTYCNSSTTLSNIQWYKQRPGGHPVFLIQLVKSGEVKKQKRLTFQFGEAKKNSSLHITATQTTDVGTYFCANRDNYGQNFVFGPGTRLSVLP
Vbeta: EAQVTQNPRYLITVTGKKLTVTCSQNMNHEYMSWYRQDPGLGLRQIYYSMNVEVTDKGDVPEGYKVSRKEKRNFPLILESPSPNQTSLYFCASTRTGTLPEAFFGQGTRLTVV
Regarding B8, in test [16], the “EC50 killing capacity (E:T ratio at which 50% of target cells were killed)” value is 20 E:T ratio. The binding result in test [6] and in test [7] was “recognises” in each case.

B9: TCR18.1 (TCR, V domains shown)
Valpha: GQQVMQIPQYQHVQEGEDFTTYCNSSTTLSNIQWYKQRPGGHPVFLIQLVKSGEVKKQKRLTFQFGEAKKNSSLHITATQTTDVGTYFCANRDNYGQNFVFGPGTRLSVLP
Vbeta: EAQVTQNPRYLITVTGKKLTVTCSQNMNHEYMSWYRQDPGLGLRQIYYSMNVEVTDKGDVPEGYKVSRKEKRNFPLILESPSPNQTSLYFCASSRTSGISYEQYFGPGTRLTVT
In the case of B9, the binding result in test [6] and in test [7] was “recognises” throughout.

B10: TCR22 (TCR, V domains shown)
Valpha: SQQGEEDPQALSIQEGENATMNCSYKTSINNLQWYRQNSGRGLVHLILIRSNEREKHSGRLRVTLDTSKKSSSLLITASRAADTASYFCATDEGGAQKLVFGQGTRLTINP
Vbeta: DVKVTQSSRYLVKRTGEKVFLECVQDMDHENMFWYRQDPGLGLRLIYFSYDVKMKEKGDIPEGYSVSREKKERFSLILESASTNQTSMYLCATVGRGEDRGEQFFGPGTRLTVL
In the case of B10, the binding result in test [8], in [9] and in [10] was “recognises” throughout.

B11: TCR6 (TCR, V domains shown)
Valpha: QKEVEQNSGPLSVPEGAIASLNCTYSDRGSQSFFWYRQYSGKSPELIMFIYSNGDKEDGRFTAQLNKASQYVSLLIRDSQPSDSATYLCAVSSNTGKLIFGQGTTLQVKP
Vbeta: DAGVIQSPRHEVTEMGQEVTLRCKPISGHNSLFWYRQTMMRGLELLIYFNNNVPIDDSGMPEDRFSAKMPNASFSTLKIQPSEPRDSAVYFCASKWGQGAGDTQYFGPGTRLTVL
Turning to B11, the binding result in test [17], in test [18] and in [19] was “recognises” each time.

B12: TCR20 (TCR, V domains shown)
Valpha: QKEVEQNSGPLSVPEGAIASLNCTYSDRGSQSFFWYRQYSGKSPELIMFIYSNGDKEDGRFTAQLNKASQYVSLLIRDSQPSDSATYLCAVNAPRPGYSTLTFGKGTMLLVSP
Vbeta: DVKVTQSSRYLVKRTGEKVFLECVQDMDHENMFWYRQDPGLGLRLIYFSYDVKMKEKGDIPEGYSVSREKKERFSLILESASTNQTSMYLCASSLSMNTEAFFGQGTRLTVV
On to B12, for which the “EC50 killing capacity (E:T ratio at which 50% of target cells were killed)” value in test [20] was 0.8 E:T ratio. Moreover, the binding result in test [21] and in test [22] was “recognises” throughout.

B13: TCR19 (TCR, V domains shown)
Valpha: AQTVTQSQPEMSVQEAETVTLSCTYDTSENNYYLFWYKQPPSRQMILVIRQEAYKQQNATENRFSVNFQKAAKSFSLKISDSQLGDTAMYFCAFISGYSTLTFGKGTMLLVSP
Vbeta: EAQVTQNPRYLITVTGKKLTVTCSQNMNHEYMSWYRQDPGLGLRQIYYSMNVEVTDKGDVPEGYKVSRKEKRNFPLILESPSPNQTSLYFCASRTSHPQTYEQYFGPGTRLTVT
On to B13, for which the binding result in [6] and in test [7] was “recognises” in each case.
